Results reported in article PMC9482650, “Quantitative fragmentomics allow affinity mapping of interactomes” (Nature Communications, 2022).

T1: ARHGAP21, Q5T5U3
T1 sequence (Q5T5U3 45-169, limits assumed, looked up): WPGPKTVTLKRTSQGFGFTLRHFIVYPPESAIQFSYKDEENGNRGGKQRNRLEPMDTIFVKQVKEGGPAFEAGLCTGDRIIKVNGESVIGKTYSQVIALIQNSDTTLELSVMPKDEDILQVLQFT

T2: DLG3_3, Q92796
T2 sequence (Q92796 374-475, limits assumed, looked up): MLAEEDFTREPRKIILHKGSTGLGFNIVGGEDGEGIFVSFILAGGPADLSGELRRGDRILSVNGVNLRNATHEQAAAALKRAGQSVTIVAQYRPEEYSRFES

T3: LIN7A, O14910
T3 sequence (O14910 103-200, limits assumed, looked up): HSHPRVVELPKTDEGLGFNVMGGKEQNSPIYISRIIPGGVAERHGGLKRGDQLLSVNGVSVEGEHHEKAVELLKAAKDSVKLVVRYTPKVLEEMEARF

T4: MPDZ_5, O75970
T4 sequence (O75970 695-796, limits assumed, looked up): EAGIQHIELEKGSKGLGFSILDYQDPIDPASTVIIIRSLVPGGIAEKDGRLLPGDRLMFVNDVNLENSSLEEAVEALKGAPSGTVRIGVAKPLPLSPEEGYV

T5: PCLO, Q9Y6V0
T5 sequence (Q9Y6V0 4491-4600, limits assumed, looked up): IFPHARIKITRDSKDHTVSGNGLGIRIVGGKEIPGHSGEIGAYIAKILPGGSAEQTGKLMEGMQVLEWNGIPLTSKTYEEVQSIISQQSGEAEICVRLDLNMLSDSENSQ

T6: LIN7B, Q9HAP6
T6 sequence (Q9HAP6 88-185, limits assumed, looked up): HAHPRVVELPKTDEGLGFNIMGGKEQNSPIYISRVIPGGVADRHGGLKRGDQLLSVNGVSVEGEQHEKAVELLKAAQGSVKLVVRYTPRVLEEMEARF

T7: TX1BP3, O14907
T7 sequence (O14907 10-122, limits assumed, looked up): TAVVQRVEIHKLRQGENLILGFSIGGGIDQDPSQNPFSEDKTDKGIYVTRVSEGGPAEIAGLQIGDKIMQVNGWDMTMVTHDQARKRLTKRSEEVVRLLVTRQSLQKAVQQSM

T8: SNTG2, Q9NY99
T8 sequence (Q9NY99 68-166, limits assumed, looked up): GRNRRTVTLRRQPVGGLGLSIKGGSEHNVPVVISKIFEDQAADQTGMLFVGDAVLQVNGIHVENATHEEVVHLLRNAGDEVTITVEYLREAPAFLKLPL

T9: PARD3B_1, Q8TEW8
T9 sequence (Q8TEW8 196-299, limits assumed, looked up): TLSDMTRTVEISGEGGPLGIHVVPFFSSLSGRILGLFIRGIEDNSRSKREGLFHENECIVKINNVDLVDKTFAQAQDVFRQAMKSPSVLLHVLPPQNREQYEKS

T10: PDZD7_3, Q9H5P4
T10 sequence (Q9H5P4 857-944, limits assumed, looked up): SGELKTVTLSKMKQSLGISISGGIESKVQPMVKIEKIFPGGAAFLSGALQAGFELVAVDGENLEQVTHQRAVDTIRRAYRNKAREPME


What was measured:
Experiment in all cases: holdup assay
Set-up in all cases: key: below the threshold = too weak to quantify, mostly under pKd 3.1 to 4
Conditions in all cases: plain residues with an end cap or a label only (N-terminal biotin on a linker: ahx)
ARHGAP21, Q5T5U3 = target: T1, ARHGAP21, Q5T5U3
TJP1_3, Q07157 = target: TJP1_3, Q07157
TJP1_3, Q07157, sequence (Q07157 416-512): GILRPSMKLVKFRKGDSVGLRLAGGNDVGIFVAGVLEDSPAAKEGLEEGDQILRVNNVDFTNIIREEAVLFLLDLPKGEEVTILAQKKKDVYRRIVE

DLG3_3, Q92796 = target: T2, DLG3_3, Q92796
GRIP2_7, Q9C0E4 = target: GRIP2_7, Q9C0E4
GRIP2_7, Q9C0E4, sequence (Q9C0E4 934-1023): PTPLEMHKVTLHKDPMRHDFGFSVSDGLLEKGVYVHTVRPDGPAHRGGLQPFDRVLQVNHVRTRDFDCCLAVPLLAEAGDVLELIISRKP

FRMPD4, Q14CM0 = target: FRMPD4, Q14CM0
FRMPD4, Q14CM0, sequence (Q14CM0 67-160): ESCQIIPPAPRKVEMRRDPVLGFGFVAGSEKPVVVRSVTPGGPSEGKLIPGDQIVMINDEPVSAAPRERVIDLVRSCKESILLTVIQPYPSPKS

LNX1_3, Q8TBB1 = target: LNX1_3, Q8TBB1
LNX1_3, Q8TBB1, sequence (Q8TBB1 500-596): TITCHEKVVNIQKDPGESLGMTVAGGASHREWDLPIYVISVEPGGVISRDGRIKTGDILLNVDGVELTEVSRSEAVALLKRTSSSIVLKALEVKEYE

PICK1, Q9NRD5 = target: PICK1, Q9NRD5
PICK1, Q9NRD5, sequence (Q9NRD5 17-115): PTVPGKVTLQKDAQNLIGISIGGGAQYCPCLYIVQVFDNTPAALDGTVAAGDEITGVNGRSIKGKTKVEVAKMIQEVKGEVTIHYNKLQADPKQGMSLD

GRIP2_5, Q9C0E4 = target: GRIP2_5, Q9C0E4
GRIP2_5, Q9C0E4, sequence (Q9C0E4 544-642): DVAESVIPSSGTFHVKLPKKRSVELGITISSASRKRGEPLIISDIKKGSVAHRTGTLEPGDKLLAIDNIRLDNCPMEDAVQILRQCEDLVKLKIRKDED

LIN7A, O14910 = target: T3, LIN7A, O14910
MAST2, Q6P0Q8 = target: MAST2, Q6P0Q8
MAST2, Q6P0Q8, sequence (Q6P0Q8 1099-1202): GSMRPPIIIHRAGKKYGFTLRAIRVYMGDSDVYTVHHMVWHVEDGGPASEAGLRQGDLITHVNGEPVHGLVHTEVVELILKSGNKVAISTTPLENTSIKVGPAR

DLG1_1, Q12959 = target: DLG1_1, Q12959
Inadl_10, Q8NI35 = target: Inadl_10, Q8NI35
Inadl_10, Q8NI35, sequence (Q8NI35 1673-1763): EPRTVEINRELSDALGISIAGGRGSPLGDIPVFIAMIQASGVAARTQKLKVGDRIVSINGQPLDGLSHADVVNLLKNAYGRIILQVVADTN

DLG1_3, Q12959 = target: DLG1_3, Q12959
MPDZ_5, O75970 = target: T4, MPDZ_5, O75970
PCLO, Q9Y6V0 = target: T5, PCLO, Q9Y6V0
GRASP, Q7Z6J2 = target: GRASP, Q7Z6J2
GRASP, Q7Z6J2, sequence (Q7Z6J2 96-193): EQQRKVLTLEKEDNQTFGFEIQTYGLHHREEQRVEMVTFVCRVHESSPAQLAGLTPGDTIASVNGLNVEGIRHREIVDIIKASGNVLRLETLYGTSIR

LIN7B, Q9HAP6 = target: T6, LIN7B, Q9HAP6
TX1BP3, O14907 = target: T7, TX1BP3, O14907
IL16_3, Q14005 = target: IL16_3, Q14005
IL16_3, Q14005, sequence (Q14005 1107-1207): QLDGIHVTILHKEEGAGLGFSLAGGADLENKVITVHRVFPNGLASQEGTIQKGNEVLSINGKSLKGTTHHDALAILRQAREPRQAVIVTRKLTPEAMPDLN

DLG1_2, Q12959 = target: DLG1_2, Q12959
LDB3, O75112 = target: LDB3, O75112
LDB3, O75112, sequence (O75112 1-94): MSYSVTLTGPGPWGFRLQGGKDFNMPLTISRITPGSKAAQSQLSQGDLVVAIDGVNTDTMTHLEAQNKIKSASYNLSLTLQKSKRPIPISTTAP

GRIP2_3, Q9C0E4 = target: GRIP2_3, Q9C0E4
GRIP2_3, Q9C0E4, sequence (Q9C0E4 238-339): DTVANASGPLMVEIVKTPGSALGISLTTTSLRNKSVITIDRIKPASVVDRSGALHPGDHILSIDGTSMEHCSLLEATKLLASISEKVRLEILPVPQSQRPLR

Inadl_5, Q8NI35 = target: Inadl_5, Q8NI35
Inadl_5, Q8NI35, sequence (Q8NI35 673-780): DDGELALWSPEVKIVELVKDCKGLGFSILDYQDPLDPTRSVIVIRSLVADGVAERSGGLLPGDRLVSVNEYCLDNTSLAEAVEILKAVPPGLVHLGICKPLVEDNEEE

SNTG2, Q9NY99 = target: T8, SNTG2, Q9NY99
PARD3B_1, Q8TEW8 = target: T9, PARD3B_1, Q8TEW8
PDZD7_3, Q9H5P4 = target: T10, PDZD7_3, Q9H5P4
DLG2_2, Q15700 = target: DLG2_2, Q15700
DLG2_2, Q15700, sequence (Q15700 189-283): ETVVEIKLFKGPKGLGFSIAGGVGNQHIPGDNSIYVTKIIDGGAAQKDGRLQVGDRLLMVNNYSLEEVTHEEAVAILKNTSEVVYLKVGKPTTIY

MAGI3_2, Q5TCQ9 = target: MAGI3_2, Q5TCQ9
MAGI3_2, Q5TCQ9, sequence (Q5TCQ9 398-503): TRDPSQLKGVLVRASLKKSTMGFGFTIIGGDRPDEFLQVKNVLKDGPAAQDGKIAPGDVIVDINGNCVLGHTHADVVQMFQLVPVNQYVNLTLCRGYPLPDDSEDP

pKd (ARHGAP21, Q5T5U3) | pKd (TJP1_3, Q07157) | pKd (DLG3_3, Q92796) | pKd (GRIP2_7, Q9C0E4) | pKd (FRMPD4, Q14CM0) | pKd (LNX1_3, Q8TBB1) | pKd (PICK1, Q9NRD5) | pKd (GRIP2_5, Q9C0E4) | pKd (LIN7A, O14910) | pKd (MAST2, Q6P0Q8) | pKd (DLG1_1, Q12959) | pKd (Inadl_10, Q8NI35) | pKd (DLG1_3, Q12959) | pKd (MPDZ_5, O75970) | pKd (PCLO, Q9Y6V0) | pKd (GRASP, Q7Z6J2) | pKd (LIN7B, Q9HAP6) | pKd (TX1BP3, O14907) | pKd (IL16_3, Q14005) | pKd (DLG1_2, Q12959) | Binder | further results
below the threshold | below the threshold | 4.71 | below the threshold | below the threshold | below the threshold | below the threshold | below the threshold | below the threshold | 5.11 | 4.6 | 3.64 | 4.88 | below the threshold | below the threshold | 5.06 | below the threshold | 5.53 | below the threshold | 5.21 | HSGSYLVTSV [APC, P25054] | pKd (LDB3, O75112): below the threshold; pKd (GRIP2_3, Q9C0E4): below the threshold; pKd (Inadl_5, Q8NI35): below the threshold; pKd (SNTG2, Q9NY99): 3.59; pKd (PARD3B_1, Q8TEW8): below the threshold; pKd (PDZD7_3, Q9H5P4): 5.11; pKd (DLG2_2, Q15700): 5.11; pKd (MAGI3_2, Q5TCQ9): 4.53
3.56 | below the threshold | below the threshold | below the threshold | 3.64 | below the threshold | below the threshold | below the threshold | below the threshold | 4.08 | below the threshold | 3.56 | below the threshold | below the threshold | below the threshold | below the threshold | below the threshold | 3.49 | below the threshold | below the threshold | RNCSTNDSLL [ADRB2, P07550] | pKd (LDB3, O75112): below the threshold; pKd (GRIP2_3, Q9C0E4): below the threshold; pKd (Inadl_5, Q8NI35): below the threshold; pKd (SNTG2, Q9NY99): below the threshold; pKd (PARD3B_1, Q8TEW8): 3.75; pKd (PDZD7_3, Q9H5P4): 3.57; pKd (DLG2_2, Q15700): below the threshold; pKd (MAGI3_2, Q5TCQ9): below the threshold
